Results on 1 molecule are retold here after patent US20170327598A1 (published 2017).

What all share (assay): sandwich ELISA, STAT protein coated at 0.5 µg/mL
The target of experiment [1] is T1, STAT 3 protein (UniProt P40763 1-770, limits assumed).
Another experiment addresses T2, STAT 1 protein (UniProt P42224 1-750, limits assumed).
T2 sequence (looked up): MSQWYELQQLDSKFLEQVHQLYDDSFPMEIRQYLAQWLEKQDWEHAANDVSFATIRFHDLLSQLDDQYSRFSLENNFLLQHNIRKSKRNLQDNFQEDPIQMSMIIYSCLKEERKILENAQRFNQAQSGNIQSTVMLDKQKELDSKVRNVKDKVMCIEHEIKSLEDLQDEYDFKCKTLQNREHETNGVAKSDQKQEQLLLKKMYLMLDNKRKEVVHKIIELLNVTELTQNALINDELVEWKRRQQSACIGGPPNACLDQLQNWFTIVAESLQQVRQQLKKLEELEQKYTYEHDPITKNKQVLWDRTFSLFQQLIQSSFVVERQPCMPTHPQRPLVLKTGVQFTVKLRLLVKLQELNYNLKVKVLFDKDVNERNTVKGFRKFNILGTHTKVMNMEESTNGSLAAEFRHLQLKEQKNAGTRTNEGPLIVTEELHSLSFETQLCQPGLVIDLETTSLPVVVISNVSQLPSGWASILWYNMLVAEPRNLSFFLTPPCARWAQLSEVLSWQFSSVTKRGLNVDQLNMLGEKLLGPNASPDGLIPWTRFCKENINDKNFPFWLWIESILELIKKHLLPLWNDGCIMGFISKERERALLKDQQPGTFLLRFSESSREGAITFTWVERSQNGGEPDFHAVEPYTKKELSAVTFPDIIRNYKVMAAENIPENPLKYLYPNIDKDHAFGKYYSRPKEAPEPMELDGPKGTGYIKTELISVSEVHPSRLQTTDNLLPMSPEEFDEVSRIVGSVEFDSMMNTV

The target in the next experiment is STAT 2 protein (UniProt P52630 1-851, limits assumed).
Experiment [2] concerns the target T3, STAT 5a protein (UniProt P42229 1-794, limits assumed).
T3 sequence (looked up): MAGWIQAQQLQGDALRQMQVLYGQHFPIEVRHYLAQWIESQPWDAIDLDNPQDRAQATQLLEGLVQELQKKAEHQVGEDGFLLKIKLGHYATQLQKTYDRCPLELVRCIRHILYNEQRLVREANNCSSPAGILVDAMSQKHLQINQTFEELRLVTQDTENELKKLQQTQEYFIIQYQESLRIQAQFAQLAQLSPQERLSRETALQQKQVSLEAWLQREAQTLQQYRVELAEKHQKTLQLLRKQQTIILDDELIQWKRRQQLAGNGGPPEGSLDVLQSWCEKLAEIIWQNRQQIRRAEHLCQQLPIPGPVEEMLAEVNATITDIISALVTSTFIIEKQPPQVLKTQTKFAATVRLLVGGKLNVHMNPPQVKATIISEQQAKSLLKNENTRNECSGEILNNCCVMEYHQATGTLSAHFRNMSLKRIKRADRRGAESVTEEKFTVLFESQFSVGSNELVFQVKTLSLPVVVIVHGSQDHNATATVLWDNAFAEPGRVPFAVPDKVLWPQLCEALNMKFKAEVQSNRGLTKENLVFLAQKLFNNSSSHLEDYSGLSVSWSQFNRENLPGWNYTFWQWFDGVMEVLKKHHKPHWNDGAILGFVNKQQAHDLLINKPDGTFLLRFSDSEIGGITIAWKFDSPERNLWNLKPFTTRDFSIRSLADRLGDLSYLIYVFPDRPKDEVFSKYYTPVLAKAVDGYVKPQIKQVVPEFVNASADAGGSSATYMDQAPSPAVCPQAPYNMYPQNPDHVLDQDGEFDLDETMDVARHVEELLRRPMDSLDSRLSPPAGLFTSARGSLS

Experiment [3] concerns the target T4, STAT 4 protein (UniProt Q14765 1-748, limits assumed).
T4 sequence (looked up): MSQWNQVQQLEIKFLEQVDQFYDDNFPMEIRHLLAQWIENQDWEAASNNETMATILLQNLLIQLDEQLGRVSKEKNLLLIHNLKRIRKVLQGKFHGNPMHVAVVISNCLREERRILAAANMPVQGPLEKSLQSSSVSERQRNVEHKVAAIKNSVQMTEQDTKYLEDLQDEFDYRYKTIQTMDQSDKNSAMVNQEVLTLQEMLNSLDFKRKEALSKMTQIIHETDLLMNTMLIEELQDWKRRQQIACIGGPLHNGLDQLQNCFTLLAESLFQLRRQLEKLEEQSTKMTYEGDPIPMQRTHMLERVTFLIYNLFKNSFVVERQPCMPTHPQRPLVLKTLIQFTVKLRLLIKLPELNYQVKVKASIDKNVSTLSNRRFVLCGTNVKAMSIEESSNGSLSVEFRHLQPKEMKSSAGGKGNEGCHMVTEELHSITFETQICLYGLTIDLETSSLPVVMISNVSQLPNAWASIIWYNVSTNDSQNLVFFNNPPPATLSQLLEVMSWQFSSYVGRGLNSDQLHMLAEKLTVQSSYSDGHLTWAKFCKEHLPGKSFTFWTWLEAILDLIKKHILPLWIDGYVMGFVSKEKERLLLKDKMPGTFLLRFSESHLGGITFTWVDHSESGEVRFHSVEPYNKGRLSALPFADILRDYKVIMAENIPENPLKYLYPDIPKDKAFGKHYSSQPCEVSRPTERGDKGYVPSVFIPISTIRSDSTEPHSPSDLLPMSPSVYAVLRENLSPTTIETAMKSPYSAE

For experiment [4], the target named is T1, STAT 3 protein. The source holds these as a separate data set.
In experiment [5] the target is T3, STAT 5a protein. This is another data set of the same source.
For experiment [6], the target named is T4, STAT 4 protein. This is another data set of the same source.
The target of experiment [7] is T3, STAT 5a protein. The source holds these as a separate data set.

Like-named read-outs stand apart in the source and are kept apart here.

Chain of STAT 2 protein (P52630 whole entry): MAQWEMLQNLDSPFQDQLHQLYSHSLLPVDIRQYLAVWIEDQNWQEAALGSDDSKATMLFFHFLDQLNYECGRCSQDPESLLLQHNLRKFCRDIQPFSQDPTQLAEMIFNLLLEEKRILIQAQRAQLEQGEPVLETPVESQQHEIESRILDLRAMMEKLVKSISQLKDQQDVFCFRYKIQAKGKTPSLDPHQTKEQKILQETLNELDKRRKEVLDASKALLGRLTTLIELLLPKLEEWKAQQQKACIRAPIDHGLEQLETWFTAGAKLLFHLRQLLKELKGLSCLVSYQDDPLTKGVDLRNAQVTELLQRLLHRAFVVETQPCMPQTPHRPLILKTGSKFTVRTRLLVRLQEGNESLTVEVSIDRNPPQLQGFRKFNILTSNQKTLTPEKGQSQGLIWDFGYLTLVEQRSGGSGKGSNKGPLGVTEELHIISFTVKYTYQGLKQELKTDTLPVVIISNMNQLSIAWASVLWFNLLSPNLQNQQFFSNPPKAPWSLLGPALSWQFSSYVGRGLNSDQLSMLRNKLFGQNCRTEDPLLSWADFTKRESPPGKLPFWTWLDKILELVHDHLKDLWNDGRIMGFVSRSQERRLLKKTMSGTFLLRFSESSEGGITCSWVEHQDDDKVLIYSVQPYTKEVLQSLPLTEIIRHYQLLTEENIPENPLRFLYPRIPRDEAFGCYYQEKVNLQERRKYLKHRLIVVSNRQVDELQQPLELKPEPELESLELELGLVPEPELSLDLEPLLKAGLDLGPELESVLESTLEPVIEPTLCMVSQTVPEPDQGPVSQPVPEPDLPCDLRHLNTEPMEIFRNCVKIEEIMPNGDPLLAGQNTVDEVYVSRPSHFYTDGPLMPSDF

B1: anti-STAT3 VHH13 (SEQ ID NO:3) sdAb (VHH)
VHH: HVQLVESGGGSVQAGGSLRLSCAASGANGGRSCMGWFRQVPGKEREGVSGISTGGLITYYADSVKGRFTISQDNTKNTLYLQMNSLKPEDTAMYYCATSRFDCYRGSWFNRYMYNSWGQGTQVTVSS
B1: the “Mean OD450” value with STAT 3 protein [1] was 0.431 OD450; with STAT 1 protein, 0.159 OD450; with STAT 2 protein it was 0.186 OD450; in the experiment with STAT 5a protein [2], 0.821 OD450; with STAT 4 protein [3], 0.833 OD450; with STAT 3 protein [4] it was 2.76 OD450. For the same molecule, the “Mean OD450” value in the experiment with STAT 5a protein [5] is 2.73 OD450; in the experiment with STAT 4 protein [6], 3.14 OD450; in the experiment with STAT 5a protein [7], 3.32 OD450.
